Assay [1] deals with T1, recombinant HMG1 purified from E. coli as a calmodulin binding protein (CBP) fusion protein (human, UniProt A9RA84 1-215 (Papio anubis entry)).
T1 sequence: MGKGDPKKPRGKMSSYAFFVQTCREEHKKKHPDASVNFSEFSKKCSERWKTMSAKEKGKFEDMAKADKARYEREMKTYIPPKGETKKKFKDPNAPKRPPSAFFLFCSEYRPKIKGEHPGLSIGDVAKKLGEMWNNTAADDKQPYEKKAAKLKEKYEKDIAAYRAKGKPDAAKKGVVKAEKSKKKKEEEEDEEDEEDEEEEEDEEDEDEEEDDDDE
As to the kind of experiment: cell-based or functional assay.

For assay [2], the target named is T1, recombinant HMG1 purified from E. coli …. As to the kind of experiment: BIAcore, mAb immobilized, HMG1 injected, steady-state model. The procedure:
HMG1 Binding Affinity via BIAcore Analysis: All experiments were performed on a BIAcore 3000 instrument (BIAcore, Inc., Piscataway, N.J.). Briefly, each mAb was immobilized to a CM5 sensor chip using a standard amino coupling chemistry. Separately a reference (control) flow cell was also prepared. Two-fold, serial dilutions of HMG1 in instrument buffer were sequentially injected at a slow flow rate over the individual mAb and reference flow-cell surfaces. Following the binding and dissociation of HMG1, the mAbs surfaces were regenerated with a brief pulse of 1M NaCl-50 mM NaOH. At the end of each experiment, the binding curves were evaluated using a steady-state model available through the BIA evaluation software supplied by BIAcore, Inc. (Piscataway, N.J.).
A general note: In SPR one partner is held on a chip, and binding of the other changes the refractive index at the surface.

In assay [3] the target is T2, HMGB1 in human brain tissue of multiple sclerosis plaques (human, UniProt P09429 1-215).
T2 construct: also called HMGB1 (MS plaques)
T2 sequence (looked up): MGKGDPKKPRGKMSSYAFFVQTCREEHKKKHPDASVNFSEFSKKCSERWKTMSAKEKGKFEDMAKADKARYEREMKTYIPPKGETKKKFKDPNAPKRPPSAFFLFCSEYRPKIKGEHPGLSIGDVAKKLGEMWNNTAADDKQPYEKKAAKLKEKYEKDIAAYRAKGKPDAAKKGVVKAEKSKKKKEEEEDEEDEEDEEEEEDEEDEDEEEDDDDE
Description: staining of human brain tissue.

The target of assay [4] is T3, HMG1 B Box peptide amino acids 91-169.
T3 construct: also called HMG1 peptide 91-169
T3 peptide: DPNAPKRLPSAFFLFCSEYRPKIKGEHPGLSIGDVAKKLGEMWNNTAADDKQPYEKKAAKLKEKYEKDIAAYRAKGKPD
As to the kind of experiment: ELISA, wells coated with HMG1 B Box peptide 91-169 at 10 ug/ml. As to the method:
(§1) The plate was then blocked with 4% milk powder dissolved in PBS at 37° C. for 1 hour. The blocking solution was removed and replaced with human anti-HMG1 antibodies at various concentrations (see FIGS. 5A-B). […] HRP activity was detected with Sureblue HRP substrate (KPL). Plates were read at 450 nm using a Kinetic Microplate Reader (Molecular Devices). […] After washing and blocking with 1% BSA in PBS, the biotinylated peptides were individually added into the avidin coated wells and incubated for 30 min at room temperature. The serial diluted antibody G4, S16 and S6 at the initial concentration at 10 μg/ml were then transferred into the wells followed by adding mouse anti human IgG-HRP conjugate (Pierce). Detection was accomplished by adding 50 μl of tetramethylbenzidine (TMB) substrate (KPL) and the absorbance was read at […].

The target of assay [5] is T4, HMG1 B Box peptide amino acids 150-183.
T4 peptide: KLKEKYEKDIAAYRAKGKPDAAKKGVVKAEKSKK
As to the kind of experiment: ELISA, wells coated with HMG1 B Box peptide 150-183 at 10 ug/ml. The procedure: as §1
In general terms: In an ELISA, binding on a coated surface is turned into a signal by an enzyme label.

For assay [6], the target named is T5, Mouse RAGE/Fc (mouse, UniProt Q62151 24-342).
T5 construct: also called RAGE/Fc fusion; not shown: Fc part not described
T5 sequence (Q62151 24-342): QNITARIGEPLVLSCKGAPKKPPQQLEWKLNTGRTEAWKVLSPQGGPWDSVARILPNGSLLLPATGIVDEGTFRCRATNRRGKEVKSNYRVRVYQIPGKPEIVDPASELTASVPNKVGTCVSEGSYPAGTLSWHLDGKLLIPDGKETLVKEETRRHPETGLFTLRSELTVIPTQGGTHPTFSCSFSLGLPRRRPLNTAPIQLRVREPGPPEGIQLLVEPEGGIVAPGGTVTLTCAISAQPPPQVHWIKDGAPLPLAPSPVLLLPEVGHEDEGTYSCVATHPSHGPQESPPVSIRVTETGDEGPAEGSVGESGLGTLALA
As to the kind of experiment: ELISA, HMGB1 titrated on RAGE-Fc in the presence of 0.03 µM CpG-A (right panel).

For assay [7], the target named is T1, recombinant HMG1 purified from E. coli …. Description: ELISA format 'Soluble HMG1/Captured Antibody' (squares): antibody captured on anti-human IgG Fc, HMG1 in solution. As to the method: Sandwich ELISA (soluble HMG1): Immunoplates (EIA/RIA plate, High binding, Costar) were coated with anti human IgG Fc at 10 μg/ml in PBS (pH 7.2) and incubated at 4° C. overnight. The coating reagent was removed and the plates were rinsed briefly with PBS. The plates were then blocked with 4% milk for 1 hour at 37° C. and rinsed with PBS. The anti-HMG1 antibodies were diluted in 4% milk. For serial dilutions, the antibodies were used at a starting concentration of 20 μg/ml. The diluted anti-HMG1 antibodies were then added into plate and incubated for 1 hr at 37° C. The plate was then washed 10 times with PBST (PBS/0.1% tween 20) and incubate with antigen (HMGB1, 2 μg/ml; or 0.7 μg/ml for native HMGB1) in 4% milk and incubated at 37° C. for 1 h. The plate was then wash 10 times and incubated with mouse anti-HMGB1, 1 μg/ml in 4% milk at 37° C. for 1 h. The plate was washed 10 times and incubated with anti-mouse IgG-HRP at 1:1000 at 37° C. for 1 h. The plate was then washed and developed. HRP activity was detected with Sureblue HRP substrate (KPL). Plates were read at 450 nm using a Kinetic Microplate Reader (Molecular Devices).

For assay [8], the target named is T6, activated HMG1 prepared from LPS stimulated THP-1 cells (human, UniProt P09429 1-215).
T6 sequence (looked up): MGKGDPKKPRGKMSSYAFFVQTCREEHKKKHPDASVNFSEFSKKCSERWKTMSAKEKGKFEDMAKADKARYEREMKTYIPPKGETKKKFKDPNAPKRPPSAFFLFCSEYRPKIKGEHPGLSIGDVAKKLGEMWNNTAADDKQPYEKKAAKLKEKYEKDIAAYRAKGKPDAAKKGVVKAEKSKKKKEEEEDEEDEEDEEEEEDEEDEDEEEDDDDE
Description: cell-based or functional assay.

The target in assay [9] is T7, recombinant rat HMGB-1, Europium-labeled (rat, UniProt P63159 1-215, limits assumed, Europium label, molar ratio of HMGB-1 to Eu 1:5).
T7 construct: also called Europium-labeled HMGB-1; recombinant HMG1 (Thp-1 assay)
T7 sequence (looked up): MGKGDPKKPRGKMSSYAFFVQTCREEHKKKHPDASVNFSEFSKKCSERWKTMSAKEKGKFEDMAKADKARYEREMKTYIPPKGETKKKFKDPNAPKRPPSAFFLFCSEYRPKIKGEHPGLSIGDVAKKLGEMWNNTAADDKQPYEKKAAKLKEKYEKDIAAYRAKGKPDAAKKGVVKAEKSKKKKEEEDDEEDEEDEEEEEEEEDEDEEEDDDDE
As to the kind of experiment: inhibition of binding of Eu-labeled HMGB-1 to THP-1 cells. The procedure:
HMG1 binding to THP-1 Cells: Recombinant rat HMGB-1 was labeled using Eu-labelling Kit from PerkinElmer. Molar ratio of HMGB-1 to Eu is 1:5. THP-1 were cultured as the protocol from ATCC. Cells were harvested and suspended at concentration 1×10⁶/ml in assay buffer containing 1×DELFIA L*R binding buffer (PerkinElmer), 50% of DELFIA stabilizer (PerkinElmer) and 0.05% of sodium azide. 100 μl of cells (1×10⁵) was added into wells in 96 well cell culture plate. The plate was incubated with gentle shaking at 4° C. for one hour. 100 μl of assay buffer containing 2 nM of Europium-labeled HMGB-1 mixed with various concentrations (333, 166.5, 83.25, 41.6, 20.8, 10.4 and 5.2 nM) of human anti-HMGB1 antibodies E11 or G2 or soluble human RAGE-Fc, were added into each wells respectively. After one hour incubation with gentle shaking at 4° C., the cells were washed four times with 1×L*R wash buffer (PerkinElmer) by centrifuging at 1200 rpm×5 min. 200 μl of enhancement solution was added into each well to dissociate and enhance Eu fluorescence at 615 nm. The fluorescence was measured with Wallac Victor Fluorometer. Assay was performed in triplicate and human antibody R3-47 was used the negative isotype control.

The target in assay [10] is T8, HMG1 purified from bovine (calf) thymus (bovine, UniProt P10103 2-215).
T8 construct: also called Calf thymus HMGB1; thymus HMG1
T8 sequence (looked up): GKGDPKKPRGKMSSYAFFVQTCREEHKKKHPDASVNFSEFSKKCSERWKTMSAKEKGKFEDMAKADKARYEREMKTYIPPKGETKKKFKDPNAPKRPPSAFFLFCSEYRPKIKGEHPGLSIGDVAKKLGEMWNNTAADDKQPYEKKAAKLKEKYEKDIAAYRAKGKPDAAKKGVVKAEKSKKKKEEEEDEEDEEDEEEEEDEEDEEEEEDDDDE
As to the kind of experiment: ELISA, wells coated with calf thymus HMGB1 at 5 ug/mL, antibody at 10 ug/mL, anti-human kappa/lambda-HRP, OD 490. The procedure: Binding to HMG1 vs. HMG2: Ultra high-binding ELISA plates (ThermoLab systems, #3855) were coated with either 5 ug/mL of Calf thymus HMGB1 or HMBG2 diluted in 10 mM Phosphate buffered saline (PBS), pH 7.2 and incubate overnight at 4 degrees. The plates were washed twice with Ca and Mg free PBS and 100 microliters of anti-HMGB1 antibody diluted in 10 mM PBS, pH 7.2+1% bovine serum albumin (BSA) to a final concentration of 10 ug/mL was added to each well and the plates were incubated 1 hour at room temperature. The wells were washed three times with 100 μl of PBS, pH 7.2. HRP labeled goat-anti-human IgG Kappa-chain (KPL, #14-10-10) and goat-anti-human IgG Lambda-chain (KPL, #14-10-11) were diluted in 10 mM PBS+1% BSA 1:1000 and 100 μl were added to each well and incubated for 1 hour at room temperature. The wells were then washed three times with 100 μl of PBS, pH 7.2. OPD substrate (Pierce chemical company, #34006) was prepared following the manufacturers instructions and 100 μl of prepared substrate was added to each well and the plates incubated at room temperature in the dark for 20-30 minutes. The reaction was stopped with the addition of 100 μl of 2M H₂SO₄, and the plates read on a plate reader at a wavelength of 490 nm.

For assay [11], the target named is T3, HMG1 B Box peptide amino acids 91-169. As to the kind of experiment: ELISA, wells coated with HMG1 B Box peptide 91-169 at 10 ug/ml, anti-human IgG-HRP, OD 450. As to the method:
as §1

Assay [12] has as its target T4, HMG1 B Box peptide amino acids 150-183. Description: ELISA, wells coated with HMG1 B Box peptide 150-183 at 10 ug/ml, anti-human IgG-HRP, OD 450. As to the method: as §1

B1: anti-HMG1 antibody G16 (antibody, V domains shown)
VH: EVQLLESGGGLVQPGGSLRLSCAASGFTFSWYKMTWVRQAPGKGLEWVSSISPSGGFTSYADSVKGRFTISRDNSKNTLYLQMNSLRAEDTAVYYCARDLDIRHAFDIWGQGTMVTVSS
VL: DIQMTQSPGTLSLSPGESGTLSCRASESVSSRHFAWYQQKPGQAPRLLIYGASSRPTGIPDRFSGSGSGTDFTLTLSRLEPEDFAVYFCQYYGSSPYTFGGGTKVEMK
By Kd is commonly meant the free concentration of one partner at which half of the binding sites on the other are occupied at equilibrium, for simple one-to-one binding. Consider B1, for which, in assay [1], the “IC50, inhibition of HMG1 stimulated NO release from macrophages” value was 22 µg/mL. Also, the “IC50, inhibition of rHMG1 stimulated IL-6 release from human PBMC” value in assay [1] turned out to be 1.06 nM. In assay [2], the dissociation constant (Kd) stood at 22 nM. Moreover, the figures for the binding result in assay [3], in assay [4] and in [5] were “binds”, “no binding (tested: 10 ug/ml (log 1.00))” and “no binding (tested: 10 ug/ml (log 1.00))”, respectively.

B2: HMGB1/CpG-A complex (other, bovine, UniProt P10103 2-215, looked up)
chain: GKGDPKKPRGKMSSYAFFVQTCREEHKKKHPDASVNFSEFSKKCSERWKTMSAKEKGKFEDMAKADKARYEREMKTYIPPKGETKKKFKDPNAPKRPPSAFFLFCSEYRPKIKGEHPGLSIGDVAKKLGEMWNNTAADDKQPYEKKAAKLKEKYEKDIAAYRAKGKPDAAKKGVVKAEKSKKKKEEEEDEEDEEDEEEEEDEEDEEEEEDDDDE
notes: also called HMGB1/CpG complex; CpG/HMGB1 complex
A word on the EC50 (read off the curve): it is the concentration that produces a half-maximal response. As for B2, the 50% effective concentration (EC50 (read off the curve)) in [6] was around 0.1 µM.

B3: anti-HMG1 antibody E11 (antibody, V domains shown)
VH: EVQLLESGGGLVQPGGSLRLSCAASGFTFSRYQMNWVRQAPGKGLEWVSSISPSGGHTHYADSVKGRFTISRDNSKNTLYLQMNSLRAEDTAVYYCAKDGRQGKISTVDHWGQGTLVTVSS
VL: DIQMTQSPGTLSLSPGERATLSCRASQSVRSNFLAWYQQKPGQAPRLLIYGASRRASGIPDRFSGSGFGADFTLSISRLEPEDFAVYYCQQYGSSPNTFGQGSRVEIK
Usually IC50 stands for the concentration needed to halve the response being measured. On to B3, for which the concentration giving a half-maximal response (EC50 (read off the curve)) in assay [7] was around 0.4 µg/mL. Moreover, the “IC50, inhibition of HMG1 stimulated NO release from macrophages” value in assay [1] stood at 101 µg/mL. Further, the “IC50, inhibition of rHMG1 stimulated IL-6 release from human PBMC” value in assay [1] is 1.22 nM. The “IC50, inhibition of native activated HMG1 stimulated IL-6 release from human PBMC” value in assay [8] amounted to 1.73 nM. In addition, the binding result in assay [4] is recorded as “no binding (tested: 10 ug/ml (log 1.00))”; in assay [5], “no binding (tested: 10 ug/ml (log 1.00))”; in assay [10] it was “binds”. Also, the IC50 in [9] came to 48.1 nM.

B4: anti-HMG1 antibody S12 (antibody, V domains shown)
VH: EVQLLESGGGLVQPGGSLRLSCAASGFTFSKYIMHWVRQAPGKGLEWVSGIVPSGGLTEYADSVKGRFTISRDNSKNTLYLQMNSLRAEDTATYYCAKEIFGQFDYWGQGTLVTVSS
VL: AQSALTQPPSVSAAPRQRVTISCSGSTSNIGNNAVTWYQYFPGKAPKLLIYSDNQRPSGVPDRFSGSKSGTSASLAITGLQAEDEADYYCQSYDRGLSVVFGGGTKLTVL
On to B4, for which the “IC50, inhibition of rHMG1 stimulated IL-6 release from human PBMC” value in [1] came out at 1.67 nM. Further, the binding result in assay [11], in assay [12] and in assay [10] was “binds” each time.

The record behind these values is patent publication US20080311122A1 (AstraZeneca / MedImmune, published 2008).
